From patent US20250277054A1

Columns and labels:
[1] = molecular target: human PSMA on human prostate cancer cells (LNCaP, C4-2, 22Rv1) (human) (UniProt Q04609); experiment: flow cytometry on 22Rv1 cells (PSMA low)
[2] = molecular target: human PSMA on human prostate cancer cells (LNCaP, C4-2, 22Rv1) (human) (UniProt Q04609); experiment: flow cytometry on C4-2 cells (PSMA high)
[3] = molecular target: human PSMA on human prostate cancer cells (LNCaP, C4-2, 22Rv1) (human) (UniProt Q04609); experiment: flow cytometry on LNCaP cells (PSMA high)
[4] = molecular target: Mouse PSMA.ECD.His (Acro) (mouse) (UniProt O35409); experiment: ELISA, coated mouse PSMA protein (His tag)
[5] = molecular target: Human PSMA.ECD.His (Acro) (human) (UniProt Q04609); experiment: ELISA, coated human PSMA protein (His tag)
[6] = molecular target: full-length cynomolgus PSMA on Flp-in CHO cells (WBP3xx042-FlpinCHO.cPro1.B7) (cynomolgus); experiment: flow cytometry on FlpInCHO-cyno PSMA cells
[7] = molecular target: Cyno PSMA.ECD.His (Acro) (cynomolgus); experiment: ELISA, coated cynomolgus PSMA protein (His tag)
[8] = molecular target: Biotinylated Human PSMA/FOLH1 Protein, His, Avitag (human) (UniProt Q04609); experiment: SPR (Biacore 8K), biotinylated human PSMA captured on streptavidin chip, antibody injected, single-cycle, 1:1 model
[9] = molecular target: human PSMA on human prostate cancer cells (LNCaP, C4-2, 22Rv1) (human) (UniProt Q04609); experiment: flow cytometry on LNCaP cells
[10] = molecular target: Human PSMA.ECD.His (Acro) (human) (UniProt Q04609); experiment: ELISA, human PSMA ECD captured by anti-His antibody
[11] = molecular target: full-length cynomolgus PSMA on Flp-in CHO cells (WBP3xx042-FlpinCHO.cPro1.B7) (cynomolgus); experiment: flow cytometry on cynomolgus PSMA-expressing CHO cells
[12] = molecular target: Cyno PSMA.ECD.His (Acro) (cynomolgus); experiment: ELISA, cynomolgus PSMA ECD captured by anti-His antibody
[13] = molecular target: Cyno PSMA.ECD.His (Acro) (cynomolgus); experiment: SPR (Biacore 8K), antibody captured by anti-human IgG Fc, PSMA injected, 1:1 model
[14] = molecular target: Human PSMA.ECD.His (Acro) (human) (UniProt Q04609); experiment: as above

Chain of Mouse PSMA.ECD.His (Acro) (mouse) (O35409 45-752): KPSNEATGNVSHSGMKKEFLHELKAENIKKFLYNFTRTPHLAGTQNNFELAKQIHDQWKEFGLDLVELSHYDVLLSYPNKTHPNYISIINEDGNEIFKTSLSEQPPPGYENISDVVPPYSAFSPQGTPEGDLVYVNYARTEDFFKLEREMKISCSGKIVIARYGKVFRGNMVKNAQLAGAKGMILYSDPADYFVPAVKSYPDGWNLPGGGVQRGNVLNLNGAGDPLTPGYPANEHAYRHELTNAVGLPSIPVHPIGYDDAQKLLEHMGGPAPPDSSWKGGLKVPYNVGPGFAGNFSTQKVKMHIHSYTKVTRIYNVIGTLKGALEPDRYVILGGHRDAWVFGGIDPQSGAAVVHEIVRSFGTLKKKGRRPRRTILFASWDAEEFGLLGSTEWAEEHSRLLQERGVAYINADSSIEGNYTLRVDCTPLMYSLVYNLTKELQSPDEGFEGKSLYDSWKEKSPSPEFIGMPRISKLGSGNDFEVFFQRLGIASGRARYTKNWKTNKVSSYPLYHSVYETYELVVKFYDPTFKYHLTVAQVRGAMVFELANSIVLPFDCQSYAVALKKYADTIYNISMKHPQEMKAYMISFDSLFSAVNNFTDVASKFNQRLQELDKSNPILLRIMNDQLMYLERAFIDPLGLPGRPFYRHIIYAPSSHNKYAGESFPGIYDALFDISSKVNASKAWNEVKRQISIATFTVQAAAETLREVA
Chain of Biotinylated Human PSMA/FOLH1 Protein, His, Avitag (human) (Q04609 44-750 limits assumed): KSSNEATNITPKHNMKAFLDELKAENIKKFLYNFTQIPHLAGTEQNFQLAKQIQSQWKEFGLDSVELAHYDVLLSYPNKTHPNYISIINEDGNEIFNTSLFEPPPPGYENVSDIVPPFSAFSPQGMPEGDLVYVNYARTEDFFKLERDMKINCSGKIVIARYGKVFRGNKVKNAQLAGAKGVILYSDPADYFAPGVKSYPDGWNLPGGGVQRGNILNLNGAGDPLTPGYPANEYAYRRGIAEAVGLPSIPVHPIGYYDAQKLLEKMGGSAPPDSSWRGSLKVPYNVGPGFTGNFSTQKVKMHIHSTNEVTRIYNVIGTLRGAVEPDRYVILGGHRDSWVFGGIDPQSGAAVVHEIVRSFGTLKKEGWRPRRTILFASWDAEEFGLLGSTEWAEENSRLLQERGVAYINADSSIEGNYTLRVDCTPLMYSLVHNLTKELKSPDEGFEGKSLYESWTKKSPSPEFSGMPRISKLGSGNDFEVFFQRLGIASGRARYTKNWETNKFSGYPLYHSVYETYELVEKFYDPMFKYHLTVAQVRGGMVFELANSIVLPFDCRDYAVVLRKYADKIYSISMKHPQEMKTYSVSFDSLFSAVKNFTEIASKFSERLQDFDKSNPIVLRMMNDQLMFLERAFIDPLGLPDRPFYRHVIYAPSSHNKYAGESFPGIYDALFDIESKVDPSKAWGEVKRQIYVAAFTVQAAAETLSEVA
Chain of Human PSMA.ECD.His (Acro) (human) (Q04609 44-750): as the sequence (Q04609 44-750 limits assumed) above
Chain of human PSMA on human prostate cancer cells (LNCaP, C4-2, 22Rv1) (human) (Q04609 whole entry, the tested form may be a part): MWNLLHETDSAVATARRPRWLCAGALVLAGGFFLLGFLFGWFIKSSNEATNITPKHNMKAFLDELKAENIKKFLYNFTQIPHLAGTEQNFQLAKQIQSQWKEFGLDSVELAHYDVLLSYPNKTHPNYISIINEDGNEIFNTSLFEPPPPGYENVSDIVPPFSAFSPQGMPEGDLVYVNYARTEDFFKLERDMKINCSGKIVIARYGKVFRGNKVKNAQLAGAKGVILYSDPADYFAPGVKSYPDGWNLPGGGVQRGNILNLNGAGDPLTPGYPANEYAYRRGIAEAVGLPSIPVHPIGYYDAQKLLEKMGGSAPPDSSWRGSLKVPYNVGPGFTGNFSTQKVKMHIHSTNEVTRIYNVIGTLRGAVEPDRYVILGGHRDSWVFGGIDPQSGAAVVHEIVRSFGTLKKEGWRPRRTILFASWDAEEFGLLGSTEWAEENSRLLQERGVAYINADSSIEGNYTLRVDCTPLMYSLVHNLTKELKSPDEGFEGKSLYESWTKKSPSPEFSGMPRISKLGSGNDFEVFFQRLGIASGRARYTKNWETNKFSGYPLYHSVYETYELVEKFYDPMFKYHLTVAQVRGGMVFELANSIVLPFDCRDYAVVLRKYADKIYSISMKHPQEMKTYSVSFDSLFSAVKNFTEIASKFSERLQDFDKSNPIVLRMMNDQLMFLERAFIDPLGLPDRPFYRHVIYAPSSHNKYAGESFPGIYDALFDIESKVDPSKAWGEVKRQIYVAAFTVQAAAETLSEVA

EC50 [1] [nM]	Max MFI [1] [MFI]	EC50 [2] [nM]	Max MFI [2] [MFI]	EC50 [3] [nM]	Max MFI [3] [MFI]	Max OD450-540 [4] [OD450-540]	Max OD450-540 [5] [OD450-540]	Max MFI [6] [MFI]	Max OD450-540 [7] [OD450-540]	Kd [8] [nM]	Max MFI [9] [MFI]	Max OD450 [10] [OD450]	EC50 [11] [nM]	Max MFI [11] [MFI]	EC50 [12] [nM]	Max OD450 [12] [OD450]	Substance	other results
46.1	5910	34.4	34200	30.8	19100	0.09	3.52	62900	3.57	36.7							AMG 160 (BMK2) (bispecific antibody)	EC50 [5]: 0.22 nM; EC50 [6]: 55.8 nM; EC50 [7]: 0.48 nM
174	5280	35.3	34700	55.7	16300	0.05		2870		32.3							AMG 340/TNB-585 (BMK1) (bispecific antibody)	koff [8]: 0.00378 s⁻¹; kon [8]: 117000 M⁻¹ s⁻¹
											3590	2.34	3.63	93300	0.011	2.79	J591 antibody (W3XX042-BMK1)	EC50 [9]: 0.48 nM; EC50 [10]: 0.077 nM; Kd [13]: 1.82 nM; koff [13]: 0.000192 s⁻¹; Kd [14]: 1.27 nM
											47.7	0.263	> 100	34.8	> 10	0.258	human IgG isotype antibody (negative control)	EC50 [4]: > 100 nM; Max OD450 [4]: 0.093 OD450
	372		138		181	0.09	0.04	19.9	0.04								isotype hIgG4 control (antibody)	
